Measured values as given in patent publication US20030171559A1 (Amgen, published 2003).
Residue numbers refer to the chain shown, from its start.

T1: G-CSF receptor (natural G-CSF receptor, found on hematopoietic cells) (mouse (bone marrow cells of Balb C …, UniProt P40223 26-837))
T1 sequence (looked up): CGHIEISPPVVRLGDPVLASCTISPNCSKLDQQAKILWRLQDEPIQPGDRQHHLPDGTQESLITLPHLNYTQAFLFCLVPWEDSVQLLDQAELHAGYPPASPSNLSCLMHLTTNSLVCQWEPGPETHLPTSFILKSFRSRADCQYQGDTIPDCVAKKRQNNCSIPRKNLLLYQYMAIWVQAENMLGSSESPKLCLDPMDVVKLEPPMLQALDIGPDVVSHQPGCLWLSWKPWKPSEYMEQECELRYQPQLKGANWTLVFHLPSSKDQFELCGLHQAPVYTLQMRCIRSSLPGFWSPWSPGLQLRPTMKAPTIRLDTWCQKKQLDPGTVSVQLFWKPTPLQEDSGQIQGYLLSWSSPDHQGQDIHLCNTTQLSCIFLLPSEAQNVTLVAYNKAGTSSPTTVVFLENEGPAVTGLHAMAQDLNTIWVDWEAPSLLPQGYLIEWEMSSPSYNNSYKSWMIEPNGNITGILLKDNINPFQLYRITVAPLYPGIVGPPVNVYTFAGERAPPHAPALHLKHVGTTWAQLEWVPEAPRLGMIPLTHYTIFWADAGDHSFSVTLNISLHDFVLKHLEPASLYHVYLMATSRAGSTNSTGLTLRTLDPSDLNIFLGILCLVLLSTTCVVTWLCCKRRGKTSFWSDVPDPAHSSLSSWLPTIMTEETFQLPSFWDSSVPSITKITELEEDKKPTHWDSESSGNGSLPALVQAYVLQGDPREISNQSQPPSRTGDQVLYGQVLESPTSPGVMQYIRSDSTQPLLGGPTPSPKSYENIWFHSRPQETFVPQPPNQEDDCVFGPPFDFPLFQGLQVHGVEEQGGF

B1: G-CSF analog Gln26->Ala26 (ligand)
chain: MTPLGPASSLPQSFLLKCLEQVRKIAGDGAALQEKLCATYKLCHPEELVLLGHSLGIPWAPLSSCPSQALQLAGCLSQLHSGLFLYQGLLQALEGISPELGPTLDTLQLDVADFATTIWQQMEELGMAPALQPTQGAMPAFASAFQRRAGGVLVASHLQSFLEVSYRVLRHLAQP
B2: G-CSF analog Met127,138->Leu127,138 (ligand)
chain: B1 chain with A26Q, M127L, M138L
B3: G-CSF analog Thr117->Ala117 (ligand)
chain: B1 chain with A26Q, T117A
B4: G-CSF analog Gln174->Ala174 (ligand)
chain: B1 chain with A26Q, Q174A
B5: G-CSF analog Lys17->Ala17 (ligand)
chain: B1 chain with K17A, A26Q
B6: G-CSF analog Asp110->Ala110 (ligand)
chain: B1 chain with A26Q, D110A
B7: G-CSF analog Ser13->Ala13 (ligand)
chain: B1 chain with S13A, A26Q
B8: G-CSF analog His53->Ala53 (ligand)
chain: B1 chain with A26Q, H53A
B9: G-CSF analog Asp28->Ala28; Asp110->Ala110 (ligand)
chain: B1 chain with A26Q, D28A, D110A
B10: G-CSF analog Gln121->Ala121 (ligand)
chain: B1 chain with A26Q, Q121A
B11: G-CSF analog Arg167->Ala167 (ligand)
chain: B1 chain with A26Q, R167A
B12: G-CSF analog Glu20->Ala20; Ser13->Gly13 (ligand)
chain: B1 chain with S13G, E20A, A26Q
B13: G-CSF analog Asp28->Ala28 (ligand)
chain: B1 chain with A26Q, D28A
B14: G-CSF analog His44->Ala44 (ligand)
chain: B1 chain with A26Q, H44A
B15: G-CSF analog Arg170->Ala170 (ligand)
chain: B1 chain with A26Q, R170A
B16: G-CSF analog Gln21->Ala21 (ligand)
chain: B1 chain with Q21A, A26Q
B17: G-CSF analog Lys24->Ala24 (ligand)
chain: B1 chain with K24A, A26Q
B18: G-CSF analog Asp113->Ala113 (ligand)
chain: B1 chain with A26Q, D113A
B19: G-CSF analog Glu124->Ala124 (ligand)
chain: B1 chain with A26Q, E124A
B20: G-CSF analog Glu20->Ala20 (ligand)
chain: B1 chain with E20A, A26Q
B21: G-CSF analog His44->Lys44 (ligand)
chain: B1 chain with A26Q, H44K
B22: G-CSF analog Glu47->Ala47 (ligand)
chain: B1 chain with A26Q, E47A
B23: G-CSF analog Lys41->Ala41 (ligand)
chain: B1 chain with A26Q, K41A
B24: G-CSF analog Arg23->Ala23 (ligand)
chain: B1 chain with R23A, A26Q
B25: G-CSF analog Phe114->Val114, Thr117->Ala117 (ligand)
chain: B1 chain with A26Q, F114V, T117A

These binders were tested against T1, G-CSF receptor (natural G-CSF receptor, …) (assay: cell-based or functional assay).

Row | % Normal G-CSF Activity (3H-thymidine uptake, mouse bone marrow cells) [%] | Binder
1 | 51 | B1
2 | 98 | B2
3 | 9.7 | B3
4 | 100 | B4
5 | 70 | B5
6 | 29 | B6
7 | 110 | B7
8 | 8.3 | B8
9 | 20.6 | B9
10 | 100 | B10
11 | 110 | B11
12 | 0 | B12
13 | 147 | B13
14 | 10.8 | B14
15 | 100 | B15
16 | 9.6 | B16
17 | 0 | B17
18 | 0 | B18
19 | 75 | B19
20 | 0 | B20
21 | 70 | B21
22 | 0 | B22
23 | 81 | B23
24 | 31 | B24
25 | 0 | B25
